Columns and labels:
[1] = molecular target: coxsackievirus-adenovirus receptor (CAR) on 293, PC-3 and PC3-CAR cells (UniProt P78310); experiment: cell-based or functional assay
[2] = molecular target: integrins; experiment: cell-based or functional assay

Substance | infection of 293 cells after anti-CAR siRNA knock-down (GFP) [1] [%] | infection of PC3-CAR against PC-3 cells (GFP fluorescence intensity, MOI 100) [1] [fold] | infection relative to wild type fiber virus [2] [%]
wild type Adenovirus Serotype 5 (Ad5) Fiber, displayed on the capsid of virus AdTrack-WTFib (from UniProt P11818 1-581) | > 50 | 26 | 
CAR ablated and RGD4C re-targeted Fiber (ΔTAYT-RGD), displayed on the capsid of virus AdTrack-RGD4C-2 (from UniProt P11818 1-542; P11818 543-581) |  |  | 5
